This passage reports amyloid nucleation score results from the supplement of paper PMC12042874.

± gives the uncertainty stated by the source.

This data set can be described thus: amyloid nucleation score (Sup35N fusion, yeast selection) (log enrichment); library NNK3; higher = more nucleation; inactive = no reads after selection. In short, it runs like this: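 Random libraries were run with three technical output replicates. In each, psi-negative yeast expressing Sup35N fused to peptides of 20 random codons were induced 24 hours with 100 μM copper sulfate and grown 7 days at 30°C on medium lacking adenine and uracil, and input and output plasmid inserts were Illumina-sequenced. The nucleation score is the DiMSum log enrichment of output over input reads, centred on the mode score of non-aggregating sequences, and sequences under 100 input reads were excluded.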

Take NTWRYN: the amyloid nucleation score result is “inactive”.

Take KNTGMGDTVSFRLVSAFEHI: the amyloid nucleation score entry was “inactive”.

In the case of LVFKLAEMCADPIKQRCCGL, the amyloid nucleation score entry was “inactive”.

In the case of RFTYGDRCMKMRMPNFETAH, the amyloid nucleation score result was “inactive”.

On to LQEGSN, for which the amyloid nucleation score result is “inactive”.

CNQTSM: the amyloid nucleation score result is “inactive”.

On to RIFRCVEIA, for which the amyloid nucleation score entry is “inactive”.

AAMKGKSTHPHKGSFSLAIA: the amyloid nucleation score result was “inactive”.

On to DLSREQLGCVVGVQAECMKG, for which the amyloid nucleation score was 0.37 ± 0.41.

With GKSIKGYGHSVFTVVLTVGY, the amyloid nucleation score entry was “inactive”.

LIAYRVGHSGSAQYSSTCGW showed an amyloid nucleation score of 1.04 ± 0.13.

As for PRDGVFLVKGDRPC, the amyloid nucleation score entry is “inactive”.

Turning to MPCNVKYSTVCFTA, the amyloid nucleation score entry is “inactive”.

Take SERWGIESHNRNSNMRKTGW: the amyloid nucleation score result was “inactive”.

Turning to GNSSII, the amyloid nucleation score result was “inactive”.

Regarding VDNCIWLFLSTFYDGCVVML, the amyloid nucleation score entry was “inactive”.

As to MSNRVMLKNYSLELEEIGRK, the amyloid nucleation score result was “inactive”.

As to WSWRDLEGQNSGKEAVILEL, the amyloid nucleation score result is “inactive”.

As to IHFNWLIYITNTYVRRIFRC, the amyloid nucleation score entry is “inactive”.

Take VLVVLDVRRGTDLCTF: the amyloid nucleation score result was “inactive”.

For NAFNL, the amyloid nucleation score result was “inactive”.

As for GVCSLCKTLR, the amyloid nucleation score entry is “inactive”.

In turn, VTHCSVFHLGNTWLVQLWWY showed an amyloid nucleation score of -0.513 ± 1.3.

GCARLAIMSKLPSCW: the amyloid nucleation score entry was “inactive”.

Consider IYYIDL, for which the amyloid nucleation score result is “inactive”.

The substance LNEFIKYLDICKFFSCSGRN returned an amyloid nucleation score of 1.61 ± 0.1.

For CPLLSGFDESWDVEYDAQGD, the amyloid nucleation score result was “inactive”.

For the substance FSMSWTVDMKE, the amyloid nucleation score result was “inactive”.

On to ILVKIVSWVHLKRTVGTDQD, for which the amyloid nucleation score entry was “inactive”.

With IKAGTEVVFRTSDLFMTMLQ, the amyloid nucleation score result is “inactive”.

As to LLGWCCSDNPDRRKEY, the amyloid nucleation score result was “inactive”.

As to QYSYSPGCRYLKVMLSNNSE, the amyloid nucleation score result was “inactive”.

On to MNRLNPRYMMIKYMDIQKWW, for which the amyloid nucleation score entry was “inactive”.

As to RERIYAELFSSWRRSAKGIF, the amyloid nucleation score entry is “inactive”.

Consider LSVSIGVVGF, for which the amyloid nucleation score entry is “inactive”.

As for ETDCRSAQSIC, the amyloid nucleation score result was “inactive”.

Turning to GIGNCYLMLQTKIFEWFFSE, the amyloid nucleation score entry is “inactive”.

Substance KIQTNCNFTC had an amyloid nucleation score of 2.5 ± 0.067.

On to IGFGSWFSKVSPNVEFVGAL, for which the amyloid nucleation score entry was “inactive”.

As for ANRLC, the amyloid nucleation score entry was “inactive”.

Regarding IWMWLKTQSISRLGTGRTTN, the amyloid nucleation score entry was “inactive”.

In the case of LVNGVHLREWVTPRVECGSF, the amyloid nucleation score result is “inactive”.

Consider RVEIRIIS, for which the amyloid nucleation score result is “inactive”.

Regarding MSFRIVFLPC, the amyloid nucleation score entry was “inactive”.

Take RNYNYFINCVHWLYLVSWGL: the amyloid nucleation score came to 0.605 ± 0.45.

Regarding RMEKIRTKVNSVTDSSWKSR, the amyloid nucleation score result is “inactive”.

Turning to AAKYFCNCRGYFAPRLKC, the amyloid nucleation score entry is “inactive”.

Regarding EVSHSVEQYFSFMCHHTWAP, the amyloid nucleation score entry is “inactive”.

Regarding LMYVS, the amyloid nucleation score entry is “inactive”.

Turning to LILVCSSGRAIMKRAPCKFR, the amyloid nucleation score entry was “inactive”.

On to VSGSFVYLLCNS, for which the amyloid nucleation score entry was “inactive”.

Substance SAVYMVSGIGNNSHTSAFIR yielded an amyloid nucleation score of 0.614 ± 0.17.

MVKDCITRVYFVVWFDYSRS: the amyloid nucleation score result is “inactive”.

For FWSDFYPHVLIRWFRSMVRS, the amyloid nucleation score result was “inactive”.

CVPHRRAIVGFFRGCVNAAS: the amyloid nucleation score entry is “inactive”.

As to IKIMFLTAVYVMVGLQIIAT, the amyloid nucleation score entry was “inactive”.

The substance SSVENFLNVCNHLDES had an amyloid nucleation score of 0.389 ± 0.25.

Regarding QTRVHLFAREPPCFTEFNER, the amyloid nucleation score entry was “inactive”.

As for PKEYTRAGNVSSRRGLFYHF, the amyloid nucleation score result is “inactive”.

For MERVRGRRMGVIVAFDVDGW, the amyloid nucleation score was determined as 1.11 ± 0.19.

In the case of SLVSYINGKVKNVPCKSCCY, the amyloid nucleation score entry was “inactive”.

Regarding YPWVYLAGYFHFFDELVGIF, the amyloid nucleation score entry is “inactive”.

With CFGISLTESMSTSQNVVLDH, the amyloid nucleation score entry was “inactive”.

LWQGNMM returned an amyloid nucleation score of -1.07 ± 1.9.

VVGQKTIVGTLIHFSFKVLA had an amyloid nucleation score of 1.26 ± 0.14.

As for TRSVFIHVYW, the amyloid nucleation score amounted to 0.095 ± 0.5.

On to LCTESFIISR, for which the amyloid nucleation score result is “inactive”.

Consider WSSWSRS, for which the amyloid nucleation score result is “inactive”.

Regarding VVCLLALKIYDMLCRCQDVV, the amyloid nucleation score result was “inactive”.

As for LKHCQMGVVTSSYLMWLVGT, the amyloid nucleation score entry was “inactive”.

For the substance LWSIRYFKIS, the amyloid nucleation score result was “inactive”.

For KWYRWCMYADDIESHLFGAL, the amyloid nucleation score result is “inactive”.

The substance LSYCKRHIRRRLFVG showed an amyloid nucleation score of -0.208 ± 0.6.

Regarding YCVFGRNCDNKAVVLIGGNP, the amyloid nucleation score entry was “inactive”.

Turning to FGSHYSFRIQKVFFAVQRSP, the amyloid nucleation score was 2.41 ± 0.082.

As to SFVPDLRARVMSCSGCSTLG, the amyloid nucleation score result was “inactive”.

Take SSLIWNLSCELLTWLHVRRW: the amyloid nucleation score was -1.3 ± 2.5.

Turning to GMDKRNNYMSIIDWRVPHSI, the amyloid nucleation score entry is “inactive”.

Consider KITLDYRLGHVDRQTTISVK, for which the amyloid nucleation score result was “inactive”.

For TGYLQLYRTADDRGLEYCIM, the amyloid nucleation score entry is “inactive”.

For the substance AEHHYAFAFTEF, the amyloid nucleation score result was “inactive”.

NCDNSNGYSTHEIEDRSTLR: the amyloid nucleation score entry is “inactive”.

As for HNILFSDLGFYRSYYNADSM, the amyloid nucleation score entry was “inactive”.

As to KTLWHEVRGDDSNVSSCWFS, the amyloid nucleation score entry is “inactive”.

Regarding HVLSVQTLYLFCKGLKESGT, the amyloid nucleation score amounted to 0.809 ± 0.16.

WLKAEGWIIILSSATRPG: the amyloid nucleation score result is “inactive”.

As for CNLVVYCMSDNDV, the amyloid nucleation score was determined as 2.33 ± 0.049.

Regarding LEWRMNVLMLFRNVMVHIAS, the amyloid nucleation score result is “inactive”.

LMYLTCPPRGDSTFPKVIRQ: the amyloid nucleation score entry is “inactive”.

As to LLHFVHNSSSMLVRRREETG, the amyloid nucleation score was 0.262 ± 0.39.

Turning to IMELLQV, the amyloid nucleation score entry is “inactive”.

MSYVSFKFVERSMGNNSGGI returned an amyloid nucleation score of -0.137 ± 0.64.

Consider SACSYYTMHHIFGAMFHN, for which the amyloid nucleation score result is “inactive”.

On to ACLCNNCLSLNPTWSCFLCL, for which the amyloid nucleation score is 2.41 ± 0.087.

Turning to DFYICPCCLSLKKRTMMSCG, the amyloid nucleation score entry was “inactive”.

Consider NNSSLRTEVLCFDGISQFGG, for which the amyloid nucleation score result is “inactive”.

Substance FILIYDRYRGF returned an amyloid nucleation score of 1.26 ± 0.095.

For NLFYDFFDYMVSRARGGRVC, the amyloid nucleation score result was “inactive”.

Take TCHLSKHEISYQLGDTNGHC: the amyloid nucleation score was -0.516 ± 0.9.

Regarding NWFRMFIGFNSCAIRRIIWD, the amyloid nucleation score result was “inactive”.

As for ETSITHLGILAVLGCNNGSE, the amyloid nucleation score entry is “inactive”.

As for LQVVNLSR, the amyloid nucleation score entry was “inactive”.

On to TVMLRRTRYVVYTVYRVVDV, for which the amyloid nucleation score result is “inactive”.

As to RTHRRKSDTVMLES, the amyloid nucleation score entry was “inactive”.

For the substance CWVIVAYTI, the amyloid nucleation score result is “inactive”.

Turning to FYVNPITEGMA, the amyloid nucleation score entry was “inactive”.

For YEWKTRGW, the amyloid nucleation score entry was “inactive”.

Take DAIEKD: the amyloid nucleation score result was “inactive”.

As for FIVLCALLWFCLNWSDLLKF, the amyloid nucleation score result is “inactive”.

In turn, MCVYITYLNLWSDNSLRDRT had an amyloid nucleation score of 2.23 ± 0.061.

FICFNFHRKECVEKASSSCK returned an amyloid nucleation score of 1.39 ± 0.064.

Regarding VRRKDSNSCVSSHTASQSGW, the amyloid nucleation score result is “inactive”.

Take IADFNSL: the amyloid nucleation score result is “inactive”.

On to WEGMNNKIRAYAYIATLVYT, for which the amyloid nucleation score result was “inactive”.

Consider CYIGCNLEILNRRDKPFIIR, for which the amyloid nucleation score entry was “inactive”.

For the substance SMKFC, the amyloid nucleation score entry is “inactive”.

As to CVMGVG, the amyloid nucleation score was found to be 0.312 ± 0.31.

Turning to ALMRYVFPKWRDCAAMWDSL, the amyloid nucleation score entry was “inactive”.

Consider SITYCWLHR, for which the amyloid nucleation score stood at 1.77 ± 0.078.

With VYNIDTRNISFMSASNRTLS, the amyloid nucleation score result is “inactive”.

For GRFRLMNLFQTDSRINLWVR, the amyloid nucleation score result was “inactive”.

Turning to TRKMLLVVSKYVMTPYGFGL, the amyloid nucleation score entry is “inactive”.

For TLLSFAHYHHLWSHLVYRSV, the amyloid nucleation score entry was “inactive”.

Take ISSPNEVWSVIVEWPRIYC: the amyloid nucleation score entry is “inactive”.

As to YGHFPQCVPLIFCYRRSMVT, the amyloid nucleation score result is “inactive”.

As to RMGHVFMYDYHIV, the amyloid nucleation score result was “inactive”.

Regarding MYRQGGCVIHWSNVG, the amyloid nucleation score result was “inactive”.

On to ESWCM, for which the amyloid nucleation score result was “inactive”.

Regarding VVFWNFTRMLCLG, the amyloid nucleation score result is “inactive”.

In the case of FLLVSLAA, the amyloid nucleation score entry is “inactive”.

With GFFSLYVVE, the amyloid nucleation score entry was “inactive”.

On to CLRRVPLQRSSFLSVNLKLM, for which the amyloid nucleation score result was “inactive”.
